Data taken from patent publication US20230105982A1, “INSULIN-INCRETIN CONJUGATES” (Merck Sharp & Dohme Corp., priority 2021, published 2023).

Columns and labels:
[1] = target: minipig insulin receptor (minipig); test: cell-based or functional assay
[2] = target: human insulin receptor (pAkt assay, CHO cells overexpressing human IR) (human) (UniProt P06213); test: cell-based or functional assay

Insulin Receptor pAK Assay EC50 [1]: 0.5 nM | Insulin Receptor pAK Assay EC50 [2]: 0.51 nM
Substance: Insulin levemir (ligand)
